This note sets out measurements from the MegaScale stability set (Tsuboyama et al. 2023).

B1: 6YSE (parent)
chain: HERALMVNRLQKLTRMLRVHPDPKWKQEQQELIKRLK

In this data set the parent is B1. Nature of the data set: folding stability dG (cDNA display proteolysis); higher = more stable. The conditions noted are these: PBS, room temperature.
Regarding HERALMVVRLQKLTRMLRVHPDPKWKQEQQELIKRLK [N8V], the “folding stability dG” value stood at 1.77 kcal/mol.

For the variant HERALMVDRLQKLTRMLRVHPDPKWKQEQQELIKRLK [N8D], the “folding stability dG” value stood at 1.45 kcal/mol.

On to HERALMVMRLQKLTRMLRVHPDPKWKQEQQELIKRLK [N8M], for which the “folding stability dG” value came out at 1.67 kcal/mol.

HERALMVTRLQKLTRMLRVHPDPKWKQEQQELIKRLK [N8T]: the “folding stability dG” value stood at 1.92 kcal/mol.

Consider HERALMVQRLQKLTRMLRVHPDPKWKQEQQELIKRLK [N8Q], for which the “folding stability dG” value is 2.12 kcal/mol.

Regarding HERALMVGRLQKLTRMLRVHPDPKWKQEQQELIKRLK [N8G], the “folding stability dG” value was 1.23 kcal/mol.

Consider HERALMVLRLQKLTRMLRVHPDPKWKQEQQELIKRLK [N8L], for which the “folding stability dG” value is 1.75 kcal/mol.

As to HERALMVERLQKLTRMLRVHPDPKWKQEQQELIKRLK [N8E], the “folding stability dG” value worked out at 1.56 kcal/mol.

In the case of HERALMVWRLQKLTRMLRVHPDPKWKQEQQELIKRLK [N8W], the “folding stability dG” value was found to be 1.34 kcal/mol.

Consider HERALMVYRLQKLTRMLRVHPDPKWKQEQQELIKRLK [N8Y], for which the “folding stability dG” value is 1.38 kcal/mol.

For the variant HERALMVRRLQKLTRMLRVHPDPKWKQEQQELIKRLK [N8R], the “folding stability dG” value is 2.01 kcal/mol.

With HERALMVIRLQKLTRMLRVHPDPKWKQEQQELIKRLK [N8I], the “folding stability dG” value is 1.84 kcal/mol.

Turning to HERALMVHRLQKLTRMLRVHPDPKWKQEQQELIKRLK [N8H], the “folding stability dG” value is 1.47 kcal/mol.

For the variant HERALMVFRLQKLTRMLRVHPDPKWKQEQQELIKRLK [N8F], the “folding stability dG” value was found to be 1.21 kcal/mol.

Consider HERALMVKRLQKLTRMLRVHPDPKWKQEQQELIKRLK [N8K], for which the “folding stability dG” value came out at 2.4 kcal/mol.

Consider HERALMVSRLQKLTRMLRVHPDPKWKQEQQELIKRLK [N8S], for which the “folding stability dG” value turned out to be 1.67 kcal/mol.

Consider HERARMVNRLQKLTRMLRVHPDPKWKQEQQELIKRLK [L5R], for which the “folding stability dG” value was 1.79 kcal/mol.

As to HERADMVNRLQKLTRMLRVHPDPKWKQEQQELIKRLK [L5D], the “folding stability dG” value was 1 kcal/mol.

For the variant HERAGMVNRLQKLTRMLRVHPDPKWKQEQQELIKRLK [L5G], the “folding stability dG” value turned out to be 1.16 kcal/mol.

Regarding HERANMVNRLQKLTRMLRVHPDPKWKQEQQELIKRLK [L5N], the “folding stability dG” value stood at 1.11 kcal/mol.

As to HERAWMVNRLQKLTRMLRVHPDPKWKQEQQELIKRLK [L5W], the “folding stability dG” value came out at 2.06 kcal/mol.

With HERAKMVNRLQKLTRMLRVHPDPKWKQEQQELIKRLK [L5K], the “folding stability dG” value stood at 1.6 kcal/mol.

As to HERAYMVNRLQKLTRMLRVHPDPKWKQEQQELIKRLK [L5Y], the “folding stability dG” value was found to be 1.23 kcal/mol.

For HERAAMVNRLQKLTRMLRVHPDPKWKQEQQELIKRLK [L5A], the “folding stability dG” value was found to be 1.6 kcal/mol.

Consider HERAFMVNRLQKLTRMLRVHPDPKWKQEQQELIKRLK [L5F], for which the “folding stability dG” value was determined as 1.19 kcal/mol.

In the case of HERAIMVNRLQKLTRMLRVHPDPKWKQEQQELIKRLK [L5I], the “folding stability dG” value was found to be 1.41 kcal/mol.

On to HERAHMVNRLQKLTRMLRVHPDPKWKQEQQELIKRLK [L5H], for which the “folding stability dG” value was found to be 1.61 kcal/mol.

Take HERASMVNRLQKLTRMLRVHPDPKWKQEQQELIKRLK [L5S]: the “folding stability dG” value stood at 1.48 kcal/mol.

With HERAMMVNRLQKLTRMLRVHPDPKWKQEQQELIKRLK [L5M], the “folding stability dG” value came out at 1.83 kcal/mol.

Consider HERAPMVNRLQKLTRMLRVHPDPKWKQEQQELIKRLK [L5P], for which the “folding stability dG” value is -0.071 kcal/mol.

In the case of HERAQMVNRLQKLTRMLRVHPDPKWKQEQQELIKRLK [L5Q], the “folding stability dG” value was determined as 1.61 kcal/mol.

Take HERAVMVNRLQKLTRMLRVHPDPKWKQEQQELIKRLK [L5V]: the “folding stability dG” value was determined as 1.29 kcal/mol.

With HERATMVNRLQKLTRMLRVHPDPKWKQEQQELIKRLK [L5T], the “folding stability dG” value is 1.27 kcal/mol.

On to HERALMVNRIQKLTRMLRVHPDPKWKQEQQELIKRLK [L10I], for which the “folding stability dG” value is 0.954 kcal/mol.

In the case of HERALMVNRFQKLTRMLRVHPDPKWKQEQQELIKRLK [L10F], the “folding stability dG” value is -0.248 kcal/mol.

Regarding HERALMVNRVQKLTRMLRVHPDPKWKQEQQELIKRLK [L10V], the “folding stability dG” value came out at 0.163 kcal/mol.

With HERALMVNRYQKLTRMLRVHPDPKWKQEQQELIKRLK [L10Y], the “folding stability dG” value is 0.292 kcal/mol.

With HERALMVNRWQKLTRMLRVHPDPKWKQEQQELIKRLK [L10W], the “folding stability dG” value was -0.405 kcal/mol.

For HERALMVNRMQKLTRMLRVHPDPKWKQEQQELIKRLK [L10M], the “folding stability dG” value was -0.327 kcal/mol.

HERYLMVNRLQKLTRMLRVHPDPKWKQEQQELIKRLK [A4Y]: the “folding stability dG” value was 1.4 kcal/mol.

In the case of HERLLMVNRLQKLTRMLRVHPDPKWKQEQQELIKRLK [A4L], the “folding stability dG” value stood at 1.49 kcal/mol.

As to HERQLMVNRLQKLTRMLRVHPDPKWKQEQQELIKRLK [A4Q], the “folding stability dG” value worked out at 1.63 kcal/mol.

Regarding HERILMVNRLQKLTRMLRVHPDPKWKQEQQELIKRLK [A4I], the “folding stability dG” value came out at 1.53 kcal/mol.

Turning to HERMLMVNRLQKLTRMLRVHPDPKWKQEQQELIKRLK [A4M], the “folding stability dG” value was 1.66 kcal/mol.

With HERFLMVNRLQKLTRMLRVHPDPKWKQEQQELIKRLK [A4F], the “folding stability dG” value was 1.12 kcal/mol.

For the variant HERSLMVNRLQKLTRMLRVHPDPKWKQEQQELIKRLK [A4S], the “folding stability dG” value was found to be 1.06 kcal/mol.

As to HERWLMVNRLQKLTRMLRVHPDPKWKQEQQELIKRLK [A4W], the “folding stability dG” value stood at 1.7 kcal/mol.

For the variant HERELMVNRLQKLTRMLRVHPDPKWKQEQQELIKRLK [A4E], the “folding stability dG” value was 1.35 kcal/mol.

As to HERNLMVNRLQKLTRMLRVHPDPKWKQEQQELIKRLK [A4N], the “folding stability dG” value worked out at 1.31 kcal/mol.

For HERKLMVNRLQKLTRMLRVHPDPKWKQEQQELIKRLK [A4K], the “folding stability dG” value was 1.68 kcal/mol.

Turning to HERHLMVNRLQKLTRMLRVHPDPKWKQEQQELIKRLK [A4H], the “folding stability dG” value stood at 1.35 kcal/mol.

With HERGLMVNRLQKLTRMLRVHPDPKWKQEQQELIKRLK [A4G], the “folding stability dG” value worked out at 0.783 kcal/mol.

On to HERTLMVNRLQKLTRMLRVHPDPKWKQEQQELIKRLK [A4T], for which the “folding stability dG” value turned out to be 1.46 kcal/mol.

HERDLMVNRLQKLTRMLRVHPDPKWKQEQQELIKRLK [A4D]: the “folding stability dG” value amounted to 1.35 kcal/mol.

For HERVLMVNRLQKLTRMLRVHPDPKWKQEQQELIKRLK [A4V], the “folding stability dG” value was found to be 1.23 kcal/mol.

As to HERPLMVNRLQKLTRMLRVHPDPKWKQEQQELIKRLK [A4P], the “folding stability dG” value amounted to 0.222 kcal/mol.

In the case of HERALMPNRLQKLTRMLRVHPDPKWKQEQQELIKRLK [V7P], the “folding stability dG” value was -0.01 kcal/mol.

Regarding HERALMTNRLQKLTRMLRVHPDPKWKQEQQELIKRLK [V7T], the “folding stability dG” value worked out at 0.591 kcal/mol.

For the variant HERALMMNRLQKLTRMLRVHPDPKWKQEQQELIKRLK [V7M], the “folding stability dG” value was 1.59 kcal/mol.

For HERALMGNRLQKLTRMLRVHPDPKWKQEQQELIKRLK [V7G], the “folding stability dG” value worked out at 0.569 kcal/mol.

Regarding HERALMQNRLQKLTRMLRVHPDPKWKQEQQELIKRLK [V7Q], the “folding stability dG” value came to 1.03 kcal/mol.

Turning to HERALMENRLQKLTRMLRVHPDPKWKQEQQELIKRLK [V7E], the “folding stability dG” value was 1.11 kcal/mol.

For the variant HERALMRNRLQKLTRMLRVHPDPKWKQEQQELIKRLK [V7R], the “folding stability dG” value came out at 1.55 kcal/mol.

For the variant HERALMANRLQKLTRMLRVHPDPKWKQEQQELIKRLK [V7A], the “folding stability dG” value was 0.946 kcal/mol.

Regarding HERALMLNRLQKLTRMLRVHPDPKWKQEQQELIKRLK [V7L], the “folding stability dG” value was found to be 2.05 kcal/mol.

As to HERALMWNRLQKLTRMLRVHPDPKWKQEQQELIKRLK [V7W], the “folding stability dG” value came out at 1.96 kcal/mol.

With HERALMINRLQKLTRMLRVHPDPKWKQEQQELIKRLK [V7I], the “folding stability dG” value was determined as 1.78 kcal/mol.
